Laboratory results taken from patent US5908756.

Target: neuronal nitric oxide synthase (nNOS) expressed in transfected HEK 293 cells (rat)

Chain of thrombin-cleaved PIN-1 (P61273 whole entry): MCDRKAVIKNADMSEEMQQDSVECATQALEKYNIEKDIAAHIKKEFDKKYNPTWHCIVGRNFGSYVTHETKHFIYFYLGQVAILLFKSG

Substance	50% inhibition of NOS activity [µM]
glutathione-S-transferase (GST)-PIN-1 fusion protein	1
thrombin-cleaved PIN-1	5000
